Publication PMC6982183

Target: human Hsp60 wild type (human)
Assay: SEC; Superdex 200 Increase 10/300 GL, 50 mM Tris-HCl (pH 7.8 at 25 °C), 2 mM DTT, 2 mM EDTA, 0.5 mg sample, 0.75 mL/min; size from calibration with molecular weight standards; before and after agitation

## human Hsp60 wild type (natural protein)
  stoichiometry N: 14
